Assay [1] deals with T1, ATAD2B bromodomain (residues 953–1085) (human, UniProt Q9ULI0 953-1085).
T1 sequence (looked up): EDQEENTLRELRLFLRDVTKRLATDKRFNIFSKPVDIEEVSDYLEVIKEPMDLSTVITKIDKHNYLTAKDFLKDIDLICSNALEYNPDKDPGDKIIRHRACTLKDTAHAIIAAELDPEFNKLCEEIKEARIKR
As to the kind of experiment: ITC. (In general: In ITC the heat of successive injections is recorded.)

In assay [2] the target is T2, ATAD2B bromodomain N1038A (human, UniProt Q9ULI0 953-1085, N1038A).
T2 sequence (looked up): T1 sequence (looked up) with N86A
As to the kind of experiment: ITC.

Residue numbers refer to the chain shown, from its start. Where no end group is shown, it is not given here.

Usually Kd stands for a measure of binding affinity in units of concentration.

As for SGRGK(Ac)QGGKARA-NH2 [H2AK5ac (res 1–12)], in assay [1], binding was put at a Kd of 42.5 µM.

SGRGK(Ac)GGK(Ac)GL-NH2 [H4K5acK8ac (res 1–10)]: the Kd in assay [1] stood at 28.1 µM; in assay [2] it was 623 µM.

In assay [1], SGRGKGGK(Ac)GL-NH2 [H4K8ac (res 1–10)] came in with a Kd of 1160 µM.

Take SGRGK(Ac)GGKGL-NH2 [H4K5ac (res 1–10)]: binding in assay [1] was put at a Kd of 48 µM.

(Values after article PMC7884259 (Journal of medicinal chemistry, 2020).)
